Data reported in paper PMC7806715, “Discovery of small molecules targeting the tandem tudor domain of the epigenetic factor UHRF1 using fragment-based ligand discovery” (Scientific Reports, 2021).

Target: T1, FLAG-C-UHRF1 (containing SRA, RING E3 domains and PBR, aa 414–793) (UniProt Q96T88 414-793)
T1 construct: UHRF1 C-terminal fragment with the SRA domain, PBR and RING domain, aa 414–793; Cloned into the vector pMCSG7; The methods mix the names His6-C-FLAG-UHRF1, FLAG-C-UHRF1 and C-FLAG-UHRF1; also called FLAG tagged-C-UHRF1; source: Rosetta (DE3) E. coli, purified (Nuvia IMAC, TEV protease digestion to remove the His-tag, second IMAC pass)
T1 sequence (looked up): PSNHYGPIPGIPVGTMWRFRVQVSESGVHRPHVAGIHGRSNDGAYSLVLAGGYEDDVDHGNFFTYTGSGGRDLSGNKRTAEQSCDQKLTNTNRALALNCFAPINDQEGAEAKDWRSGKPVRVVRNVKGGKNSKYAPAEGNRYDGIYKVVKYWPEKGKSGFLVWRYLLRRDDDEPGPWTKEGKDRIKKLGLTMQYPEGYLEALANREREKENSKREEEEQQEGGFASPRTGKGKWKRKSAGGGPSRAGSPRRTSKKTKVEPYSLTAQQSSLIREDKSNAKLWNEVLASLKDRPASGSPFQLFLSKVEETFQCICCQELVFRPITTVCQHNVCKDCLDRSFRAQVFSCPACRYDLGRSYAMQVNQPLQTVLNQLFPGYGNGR
Test: AlphaScreen or HTRF; AlphaScreen: 300 nM biotinylated-His-Avitag-N-UHRF1 on streptavidin donor beads, 300 nM FLAG-C-UHRF1 on anti-FLAG acceptor beads; 50 mM HEPES pH 6.5 (screen) or 50 mM sodium phosphate pH 7 (dose response), 150 mM NaCl, 0.1% Triton X-100, 1 mM DTT; room temperature; inhibition by fragments or histone peptides
Settings: both partners purified

binding result: binds
B1: biotinylated-His-AviTag-N-UHRF1 (containing UBL and TTD, aa 1–285) (domain or fragment, UniProt Q96T88 1-285, looked up)
chain: MWIQVRTMDGRQTHTVDSLSRLTKVEELRRKIQELFHVEPGLQRLFYRGKQMEDGHTLFDYEVRLNDTIQLLVRQSLVLPHSTKERDSELSDTDSGCCLGQSESDKSSTHGEAAAETDSRPADEDMWDETELGLYKVNEYVDARDTNMGAWFEAQVVRVTRKAPSRDEPCSSTSRPALEEDVIYHVKYDDYPENGVVQMNSRDVRARARTIIKWQDLEVGQVVMLNYNPDNPKERGFWYDAEISRKRETRTARELYANVVLGDDSLNDCRIIFVDEVFKIERPGE
modifications: biotin on the AviTag
notes: Cloned into the vector pMCSG51; also called biotinylated-AviTag-N-UHRF1
